We go through two molecules from article PMC5812716.

In assay [1] the target is MukF FC2 (E. coli). To be noted: scale: % of the maximal ATPase obtained with MukF.
Assay [2] concerns the target MukF FN2 (E. coli).
The target in assay [3] is fluorescently labelled FN2, FN10, FN3 and FC2 (E. coli). As to the kind of experiment: fluorescence correlation spectroscopy (FCS) + fluorescence polarisation; range of Kds told for the four Cy5-labelled MukF fragments together (FN2, FN10 by FCS; FN3, FC2 by FPA); MukB titrated. Background: Fluorescence polarisation rises when a labelled molecule tumbles more slowly, as on binding a larger partner.

The target in assay [4] is MukF FN2 (E. coli). As to the kind of experiment: SEC-MALS; Superose 6 10/300 GL or Superose 12 10/300; 50 mM HEPES pH 7.5, 100 mM NaCl, 1 mM DTT, 1 mM EDTA; 20 °C; mixtures at stated monomer:dimer molar ratios; some runs with 1 mM ATP. In general terms: In gel filtration, larger molecules generally elute earlier.

What is called Kd is the concentration at which binding is half-saturated. The term stoichiometry N denotes a count of units in the complex or per binding partner.

B1: MukB (natural protein)
chain: MIERGKFRSLTLINWNGFFARTFDLDELVTTLSGGNGAGKSTTMAAFVTALIPDLTLLHFRNTTEAGATSGSRDKGLHGKLKAGVCYSMLDTINSRHQRVVVGVRLQQVAGRDRKVDIKPFAIQGLPMSVQPTQLVTETLNERQARVLPLNELKDKLEAMEGVQFKQFNSITDYHSLMFDLGIIARRLRSASDRSKFYRLIEASLYGGISSAITRSLRDYLLPENSGVRKAFQDMEAALRENRMTLEAIRVTQSDRDLFKHLISEATNYVAADYMRHANERRVHLDKALEFRRELHTSRQQLAAEQYKHVDMARELAEHNGAEGDLEADYQAASDHLNLVQTALRQQEKIERYEADLDELQIRLEEQNEVVAEAIERQQENEARAEAAELEVDELKSQLADYQQALDVQQTRAIQYNQAIAALNRAKELCHLPDLTADCAAEWLETFQAKELEATEKMLSLEQKMSMAQTAHSQFEQAYQLVVAINGPLARNEAWDVARELLREGVDQRHLAEQVQPLRMRLSELEQRLREQQEAERLLADFCKRQGKNFDIDELEALHQELEARIASLSDSVSNAREERMALRQEQEQLQSRIQSLMQRAPVWLAAQNSLNQLSEQCGEEFTSSQDVTEYLQQLLEREREAIVERDEVGARKNAVDEEIERLSQPGGSEDQRLNALAERFGGVLLSEIYDDVSLEDAPYFSALYGPSRHAIVVPDLSQVTEHLEGLTDCPEDLYLIEGDPQSFDDSVFSVDELEKAVVVKIADRQWRYSRFPEVPLFGRAARESRIESLHAEREVLSERFATLSFDVQKTQRLHQAFSRFIGSHLAVAFESDPEAEIRQLNSRRVELERALSNHENDNQQQRIQFEQAKEGVTALNRILPRLNLLADDSLADRVDEIRERLDEAQEAARFVQQFGNQLAKLEPIVSVLQSDPEQFEQLKEDYAYSQQMQRDARQQAFALTEVVQRRAHFSYSDSAEMLSGNSDLNEKLRERLEQAEAERTRAREALRGHAAQLSQYNQVLASLKSSYDTKKELLNDLQRELQDIGVRADSGAEERARIRRDELHAQLSNNRSRRNQLEKALTFCEAEMDNLTRKLRKLERDYFEMREQVVTAKAGWCAVMRMVKDNGVERRLHRRELAYLSADDLRSMSDKALGALRLAVADNEHLRDVLRMSEDPKRPERKIQFFVAVYQHLRERIRQDIIRTDDPVEAIEQMEIELSRLTEELTSREQKLAISSRSVANIIRKTIQREQNRIRMLNQGLQNVSFGQVNSVRLNVNVRETHAMLLDVLSEQHEQHQDLFNSNRLTFSEALAKLYQRLNPQIDMGQRTPQTIGEELLDYRNYLEMEVEVNRGSDGWLRAESGALSTGEAIGTGMSILVMVVQSWEDESRRLRGKDISPCRLLFLDEAARLDARSIATLFELCERLQMQLIIAAPENISPEKGTTYKLVRKVFQNTEHVHVVGLRGFAPQLPETLPGTDEAPSQAS
As for B1, the MukB ATPase (steady state, phosphate release) with saturating FC2 at a 2.5-fold molar excess, against MukF in assay [1] stood at 60. The same molecule gave a MukB ATPase (steady state, phosphate release) with saturating FN2 at a 2.5-fold molar excess, against MukF (% of maximum ATPase) in assay [2] of 33. In assay [3], the Kd lay within 9 to 26 nM.

B2: MukF FN2 (domain or fragment)
chain: MSEFSQTVPELVAWARKNDFSISLPVDRLSFLLAVATLNGERLDGEMSEGELVDAFRHVSDAFEQTSETIGVRANNAINDMVRQRLLNRFTSEQAEGNAIYRLTPLGIGITDYYIRQREFSTLRLSMQLSIVAGELKRAADAAEEGGDEFHWHRNVYAPLKYSVAEIFDSIDLTQRLMDEQQQQVKDDIAQLLNKDWRAAISSCELLLSETSGTLRELQDTLEAAGDKLQANLLRIQDATMTHDDLHFVDRLVFDLQSKLDRIISWGQQSIDLWIGYDRHVHKFIRT
modifications: not checked
With B2, the stoichiometry N in assay [4] was determined as 2.
